The values that follow come from patent publication US20240270846A1 (published 2024).

In the assay the target is T1, CD3 epsilon homodimer protein (UniProt P07766 23-126).
T1 construct: Construct of the homodimer protein is not described; also called CD3 (CD3 epsilon)
As to the kind of experiment: SPR (Biacore T200), CD3 epsilon homodimer on CM4 chip, one-arm antibody as analyte; ratio to unaltered CE115HA000.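 Note: surface plasmon resonance run at 25 °C with HBS-EP+ as running buffer, CD3 epsilon homodimer attached by amine coupling, antibody passed over as analyte.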

Residue numbers refer to the chain shown, from its start. In names and notes the source's numbering stands.

T1 sequence (P07766 23-126): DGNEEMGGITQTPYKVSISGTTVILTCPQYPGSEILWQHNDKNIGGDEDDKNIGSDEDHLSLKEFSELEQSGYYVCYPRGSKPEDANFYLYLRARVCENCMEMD

B1: CE115HA000 G98A one-arm antibody (antibody, human IgG1, kappa, L234A L235A, N297A, name in Kabat numbering)
heavy: QVQLVESGGGVVQPGRSLRLSCAASGFTFSNAWMHWVRQAPGKGLEWVAQIKAKSNNYATYYAESVKGRFTISRDDSKNSLYLQMNSLKTEDTAVYYCRYVHYAAYYGVDAWGQGTTVTVSSASTKGPSVFPLAPSSKSTSGGTAALGCLVKDYFPEPVTVSWNSGALTSGVHTFPAVLQSSGLYSLSSVVTVPSSSLGTQTYICNVNHKPSNTKVDKKVEPKSCDKTHTCPPCPAPEAAGGPSVFLFPPKPKDTLMISRTPEVTCVVVDVSHEDPEVKFNWYVDGVEVHNAKTKPREEQYASTYRVVSVLTVLHQDWLNGKEYKCKVSNKALPAPIEKTISKAKGQPREPQVYTLPPSRCELTKNQVSLSCAVKGFYPSDIAVEWESNGQPENNYKTTPPVLDSDGSFFLVSKLTVDKSRWQQGNVFSCSVMHEALHNHYTQKSLSLSPDYKDDDDK
chain: EPKSSDKTHTCPPCPAPELLGGPSVFLFPPKPKDTLMISRTPEVTCVVVDVSHEDPEVKFNWYVDGVEVHNAKTKPREEQYNSTYRVVSVLTVLHQDWLNGKEYKCKVSNKALPAPIEKTISKAKGQPREPQVCTLPPSRDELTKNQVSLWCLVKGFYPSDIAVEWESNGQPENNYKTTPPVLDSDGSFFLYSKLTVDKSRWQQGNVFSCSVMHEALHNRYTQKSLSLSP
light: DIVMTQSPLSLPVTPGEPASISCRSSQSLVHSNRNTYLHWYQQKPGQAPRLLIYKVSNRFSGVPDRFSGSGSGTDFTLKISRVEAEDVGVYYCGQGTQVPYTFGQGTKLEIKRTVAAPSVFIFPPSDEQLKSGTASVVCLLNNFYPREAKVQWKVDNALQSGNSQESVTEQDSKDSTYSLSSTLTLSKADYEKHKVYACEVTHQGLSSPVTKSFNRGEC
notes: one-arm antibody
Regarding B1, the “KD ratio (KD value of CE115HA000/KD value of the altered form)” value (“KD ratio” for short) was found to be 0.98.

B2: CE115HA000 G98P one-arm antibody (antibody, human IgG1, kappa, L234A L235A, N297A, name in Kabat numbering)
heavy: B1 heavy with A104P
chain: B1 chain
light: B1 light
notes: one-arm antibody
Turning to B2, the “KD ratio” value is 0.88.

B3: CE115HA000 H96L one-arm antibody (antibody, human IgG1, kappa, L234A L235A, N297A, name in Kabat numbering)
heavy: B1 heavy with H102L, A104G
chain: B1 chain
light: B1 light
notes: one-arm antibody
Consider B3, for which the “KD ratio” value was 3.14.

B4: CE115HA000 G98S one-arm antibody (antibody, human IgG1, kappa, L234A L235A, N297A, name in Kabat numbering)
heavy: B1 heavy with A104S
chain: B1 chain
light: B1 light
notes: one-arm antibody
For B4, the “KD ratio” value amounted to 0.98.

B5: CE115HA000 G100bD one-arm antibody (antibody, human IgG1, kappa, L234A L235A, N297A, name in Kabat numbering)
heavy: B1 heavy with A104G, G108D
chain: B1 chain
light: B1 light
notes: one-arm antibody
For B5, the “KD ratio” value amounted to 6.25.

B6: CE115HA000 G98T one-arm antibody (antibody, human IgG1, kappa, L234A L235A, N297A, name in Kabat numbering)
heavy: B1 heavy with A104T
chain: B1 chain
light: B1 light
notes: one-arm antibody
With B6, the “KD ratio” value was found to be 0.93.

B7: CE115HA000 K75R one-arm antibody (antibody, human IgG1, kappa, L234A L235A, N297A, name in Kabat numbering)
heavy: B1 heavy with K78R, A104G
chain: B1 chain
light: B1 light
notes: one-arm antibody
Regarding B7, the “KD ratio” value came out at 0.88.

B8: CE115HA000 H96K one-arm antibody (antibody, human IgG1, kappa, L234A L235A, N297A, name in Kabat numbering)
heavy: B1 heavy with H102K, A104G
chain: B1 chain
light: B1 light
notes: one-arm antibody
Take B8: the “KD ratio” value is 1.56.

B9: CE115HA000 G100bF one-arm antibody (antibody, human IgG1, kappa, L234A L235A, N297A, name in Kabat numbering)
heavy: B1 heavy with A104G, G108F
chain: B1 chain
light: B1 light
notes: one-arm antibody
Take B9: the “KD ratio” value is 4.37.

B10: CE115HA000 G98K one-arm antibody (antibody, human IgG1, kappa, L234A L235A, N297A, name in Kabat numbering)
heavy: B1 heavy with A104K
chain: B1 chain
light: B1 light
notes: one-arm antibody
As for B10, the “KD ratio” value was determined as 4.85.

B11: CE115HA000 K64A one-arm antibody (antibody, human IgG1, kappa, L234A L235A, N297A, name in Kabat numbering)
heavy: B1 heavy with K67A, A104G
chain: B1 chain
light: B1 light
notes: one-arm antibody
For B11, the “KD ratio” value is 0.81.

B12: CE115HA000 G98R one-arm antibody (antibody, human IgG1, kappa, L234A L235A, N297A, name in Kabat numbering)
heavy: B1 heavy with A104R
chain: B1 chain
light: B1 light
notes: one-arm antibody
B12: the “KD ratio” value turned out to be 4.69.

B13: CE115HA000 G100bL one-arm antibody (antibody, human IgG1, kappa, L234A L235A, N297A, name in Kabat numbering)
heavy: B1 heavy with A104G, G108L
chain: B1 chain
light: B1 light
notes: one-arm antibody
As to B13, the “KD ratio” value stood at 5.84.

B14: CE115HA000 G100bS one-arm antibody (antibody, human IgG1, kappa, L234A L235A, N297A, name in Kabat numbering)
heavy: B1 heavy with A104G, G108S
chain: B1 chain
light: B1 light
notes: one-arm antibody
For the molecule B14, the “KD ratio” value was determined as 1.25.

B15: CE115HA000 G100bE one-arm antibody (antibody, human IgG1, kappa, L234A L235A, N297A, name in Kabat numbering)
heavy: B1 heavy with A104G, G108E
chain: B1 chain
light: B1 light
notes: one-arm antibody
Take B15: the “KD ratio” value turned out to be 7.29.

B16: CE115HA000 H96G one-arm antibody (antibody, human IgG1, kappa, L234A L235A, N297A, name in Kabat numbering)
heavy: B1 heavy with H102G, A104G
chain: B1 chain
light: B1 light
notes: one-arm antibody
On to B16, for which the “KD ratio” value is 0.8.

B17: CE115HA000 L78I one-arm antibody (antibody, human IgG1, kappa, L234A L235A, N297A, name in Kabat numbering)
heavy: B1 heavy with L81I, A104G
chain: B1 chain
light: B1 light
notes: one-arm antibody
As for B17, the “KD ratio” value came to 1.08.

B18: CE115HA000 H96Q one-arm antibody (antibody, human IgG1, kappa, L234A L235A, N297A, name in Kabat numbering)
heavy: B1 heavy with H102Q, A104G
chain: B1 chain
light: B1 light
notes: one-arm antibody
As for B18, the “KD ratio” value worked out at 1.36.

B19: CE115HA000 K64E one-arm antibody (antibody, human IgG1, kappa, L234A L235A, N297A, name in Kabat numbering)
heavy: B1 heavy with K67E, A104G
chain: B1 chain
light: B1 light
notes: one-arm antibody
As for B19, the “KD ratio” value was found to be 0.84.

B20: CE115HA000 K64S one-arm antibody (antibody, human IgG1, kappa, L234A L235A, N297A, name in Kabat numbering)
heavy: B1 heavy with K67S, A104G
chain: B1 chain
light: B1 light
notes: one-arm antibody
Consider B20, for which the “KD ratio” value stood at 0.85.

B21: CE115HA000 K64D one-arm antibody (antibody, human IgG1, kappa, L234A L235A, N297A, name in Kabat numbering)
heavy: B1 heavy with K67D, A104G
chain: B1 chain
light: B1 light
notes: one-arm antibody
Regarding B21, the “KD ratio” value came to 0.76.

B22: CE115HA000 H96R one-arm antibody (antibody, human IgG1, kappa, L234A L235A, N297A, name in Kabat numbering)
heavy: B1 heavy with H102R, A104G
chain: B1 chain
light: B1 light
notes: one-arm antibody
With B22, the “KD ratio” value stood at 1.59.

B23: CE115HA000 G98Y one-arm antibody (antibody, human IgG1, kappa, L234A L235A, N297A, name in Kabat numbering)
heavy: B1 heavy with A104Y
chain: B1 chain
light: B1 light
notes: one-arm antibody
Regarding B23, the “KD ratio” value stood at 2.75.

B24: CE115HA000 G98H one-arm antibody (antibody, human IgG1, kappa, L234A L235A, N297A, name in Kabat numbering)
heavy: B1 heavy with A104H
chain: B1 chain
light: B1 light
notes: one-arm antibody
For B24, the “KD ratio” value worked out at 1.14.

B25: CE115HA000 K75T one-arm antibody (antibody, human IgG1, kappa, L234A L235A, N297A, name in Kabat numbering)
heavy: B1 heavy with K78T, A104G
chain: B1 chain
light: B1 light
notes: one-arm antibody
On to B25, for which the “KD ratio” value came out at 0.75.

B26: CE115HA000 H96S one-arm antibody (antibody, human IgG1, kappa, L234A L235A, N297A, name in Kabat numbering)
heavy: B1 heavy with H102S, A104G
chain: B1 chain
light: B1 light
notes: one-arm antibody
Turning to B26, the “KD ratio” value was 1.15.

B27: CE115HA000 G98D one-arm antibody (antibody, human IgG1, kappa, L234A L235A, N297A, name in Kabat numbering)
heavy: B1 heavy with A104D
chain: B1 chain
light: B1 light
notes: one-arm antibody
Consider B27, for which the “KD ratio” value came to 2.36.

B28: CE115HA000 H96Y one-arm antibody (antibody, human IgG1, kappa, L234A L235A, N297A, name in Kabat numbering)
heavy: B1 heavy with H102Y, A104G
chain: B1 chain
light: B1 light
notes: one-arm antibody
As for B28, the “KD ratio” value was 6.67.

B29: CE115HA000 G98Q one-arm antibody (antibody, human IgG1, kappa, L234A L235A, N297A, name in Kabat numbering)
heavy: B1 heavy with A104Q
chain: B1 chain
light: B1 light
notes: one-arm antibody
B29: the “KD ratio” value was 1.04.

B30: CE115HA000 K64Q one-arm antibody (antibody, human IgG1, kappa, L234A L235A, N297A, name in Kabat numbering)
heavy: B1 heavy with K67Q, A104G
chain: B1 chain
light: B1 light
notes: one-arm antibody
On to B30, for which the “KD ratio” value amounted to 0.87.

B31: CE115HA000 G100bY one-arm antibody (antibody, human IgG1, kappa, L234A L235A, N297A, name in Kabat numbering)
heavy: B1 heavy with A104G, G108Y
chain: B1 chain
light: B1 light
notes: one-arm antibody
B31: the “KD ratio” value was 51.4.
